Reference: patent US20230037682A1 (published 2023)
Like-named read-outs stand apart in the source and are kept apart here.

Legend:
CD3 peptide [1] = assay: SPR (Biacore); 25 °C
CD3 peptide [2] = assay: SPR (Biacore); 25 °C; remark: listed apart in the source

Kd (CD3 peptide [1]) [nM]	Kd (CD3 peptide [2]) [nM]	Binder
262	–	CD3_12 (NOV123) (antibody, V domains shown) VH: QVQLVQSGAEVKKPGASVKVSCKASGYTFTSYYIYWVRQAPGQRLEWMGYIYPGHDAIYYSENFKGRVTITADTSASTAYMELSSLRSEDTAVYYCVRPNTMMAPLAYWGQGTLVTVSS VL: DVVMTQSPLSLPVTLGQPASISCRSSQSLIYSIGNTYLHWYQQRPGQSPRLLIYRVSNRFSGVPDRFSGSGSGTDFTLKISRVEAEDVGVYYCFQSTHLPYTFGQGTKLEIKR
–	4.59	CD3_13 (NOV292) (antibody, V domains shown) VH: QVQLVESGGGVVQPGRSLRLSCAASGFTFSKNGMHWVRQAPGKGLEWVAMIYYDSSKMYYADTVKGRFTISRDNSKNTLYLQMNSLRAEDTAVYYCASFWWDLDFDHWGQGTMVTVSS VL: DIVMTQTPLSSPVTLGQPASISCRSSQSLVRSDGTTYFNWYQQRPGQPPRLLIYRVSNRFSGVPDRFSGSGAGTDFTLKISRVEAEDVGVYYCLQSSHFPWTFGGGTKVEIKR
